Experimental data: US20230212319A1, “NOVEL ANTIGEN BINDING DOMAINS AND SYNTHETIC ANTIGEN RECEPTORS INCORPORATING THE SAME” (University of Southern California, priority 2020, published 2023)
Positions count from the first letter of the chain named.

B1: 22247 (protein)
chain: MALPVTALLLPLALLLHAARPACPQLGPYELWELSHGTGAVVRGAEFDIQMTQSPSSLSASVGDRVTITCKASDHINNWLAWYQQKPGQAPKLLIYGATTLETGVPSRFSGSGSGTDYTLTISSLQPEDFATYYCQQSWNTPWTFGQGTKLEIKRLEDLKNVFPPEVAVFEPSKAEIAHTQKATLVCLATGFYPDHVELSWWVNGKEVHSGVCTDPQPLKEQPALNDSRYCLSSRLRVSATFWQNPRNHFRCQVQFYGLSENDEWTQDRAKPVTQIVSAEAWGRADCGITSASYHQGVLSATILYEILLGKATLYAVLVSALVLMAMVKRKDSRGRAKRSGSGATNFSLLKQAGDVEENPGPTSATMDWIWRILFLVGAATGAHSGPQVQLQESGGGLAQAGGSLRLSCAASGRTFSMGWFRQAPGKEREFVAAITYSGGSPYYASSVRGRFTISRDNAKNTVYLQMNSLKPEDTAVYYCAANPTYGSDWNAENWGQGTQVTVSSGSGGGGSGGGGSGGGGSFEQVQLQQPGAELVKPGASVKMSCKASGYAFSSYWINWMKQKPGQGLEWIGQIYPGDGDTNYNGKFKGRATLTADTSSSTAYMQLSSLTSEDSAVYFCARSITTVVGCAMDYWGQGTSVTVSSTRIQNPDPAVYQLRDSKSSDKSVCLFTDFDSQTNVSQSKDSDVYITDKCVLDMRSMDFKSNSAVAWSNKSDFACANAFNNSIIPEDTFFPSSDVPCDVKLVEKSFETDTNLNFQNLSVIGFRILLLKVAGFNLLMTLRLWSSRAKRSGSGVKQTLNFDLLKLAGDVESNPGPSRGHMTEYKPTVRLATRDDVPRAVRTLAAAFADYPATRHTVDPDRHIERVTELQELFLTRVGLDIGKVWVADDGAAVAVWTTPESVEAGAVFAEIGPRMAELSGSRLAAQQQMEGLLAPHRPKEPAWFLATVGVSPDHQGKGLGSAVVLPGVEAAERAGVPAFLETSAPRNLPFYERLGFTVTADVEVPEGPRTWCMTRKPGA
B2: 22243 (protein)
chain: MALPVTALLLPLALLLHAARPACQDKLTQWPKWLEGTGGGGSGGGGSGGGGSEFDIQMTQSPSSLSASVGDRVTITCKASDHINNWLAWYQQKPGQAPKLLIYGATTLETGVPSRFSGSGSGTDYTLTISSLQPEDFATYYCQQSWNTPWTFGQGTKLEIKRLEDLKNVFPPEVAVFEPSKAEIAHTQKATLVCLATGFYPDHVELSWWVNGKEVHSGVCTDPQPLKEQPALNDSRYCLSSRLRVSATFWQNPRNHFRCQVQFYGLSENDEWTQDRAKPVTQIVSAEAWGRADCGITSASYHQGVLSATILYEILLGKATLYAVLVSALVLMAMVKRKDSRGRAKRSGSGATNFSLLKQAGDVEENPGPTSATMDWIWRILFLVGAATGAHSGPQVQLQESGGGLAQAGGSLRLSCAASGRTFSMGWFRQAPGKEREFVAAITYSGGSPYYASSVRGRFTISRDNAKNTVYLQMNSLKPEDTAVYYCAANPTYGSDWNAENWGQGTQVTVSSGSGGGGSGGGGSGGGGSFEQVQLQQPGAELVKPGASVKMSCKASGYAFSSYWINWMKQKPGQGLEWIGQIYPGDGDTNYNGKFKGRATLTADTSSSTAYMQLSSLTSEDSAVYFCARSITTVVGCAMDYWGQGTSVTVSSTRIQNPDPAVYQLRDSKSSDKSVCLFTDFDSQTNVSQSKDSDVYITDKCVLDMRSMDFKSNSAVAWSNKSDFACANAFNNSIIPEDTFFPSSDVPCDVKLVEKSFETDTNLNFQNLSVIGFRILLLKVAGFNLLMTLRLWSSRAKRSGSGVKQTLNFDLLKLAGDVESNPGPSRGHMTEYKPTVRLATRDDVPRAVRTLAAAFADYPATRHTVDPDRHIERVTELQELFLTRVGLDIGKVWVADDGAAVAVWTTPESVEAGAVFAEIGPRMAELSGSRLAAQQQMEGLLAPHRPKEPAWFLATVGVSPDHQGKGLGSAVVLPGVEAAERAGVPAFLETSAPRNLPFYERLGFTVTADVEVPEGPRTWCMTRKPGA
B3: 22214 (protein)
chain: MALPVTALLLPLALLLHAARPACPYINIYNAEPANPSEKNSPTQYAYGTGPQGIFGQPGYINEFDIQMTQSPSSLSASVGDRVTITCKASDHINNWLAWYQQKPGQAPKLLIYGATTLETGVPSRFSGSGSGTDYTLTISSLQPEDFATYYCQQSWNTPWTFGQGTKLEIKRLEDLKNVFPPEVAVFEPSKAEIAHTQKATLVCLATGFYPDHVELSWWVNGKEVHSGVCTDPQPLKEQPALNDSRYCLSSRLRVSATFWQNPRNHFRCQVQFYGLSENDEWTQDRAKPVTQIVSAEAWGRADCGITSASYHQGVLSATILYEILLGKATLYAVLVSALVLMAMVKRKDSRGRAKRSGSGATNFSLLKQAGDVEENPGPTSATMDWIWRILFLVGAATGAHSGPQVQLQESGGGLAQAGGSLRLSCAASGRTFSMGWFRQAPGKEREFVAAITYSGGSPYYASSVRGRFTISRDNAKNTVYLQMNSLKPEDTAVYYCAANPTYGSDWNAENWGQGTQVTVSSGSGGGGSGGGGSGGGGSFEQVQLQQPGAELVKPGASVKMSCKASGYAFSSYWINWMKQKPGQGLEWIGQIYPGDGDTNYNGKFKGRATLTADTSSSTAYMQLSSLTSEDSAVYFCARSITTVVGCAMDYWGQGTSVTVSSTRIQNPDPAVYQLRDSKSSDKSVCLFTDFDSQTNVSQSKDSDVYITDKCVLDMRSMDFKSNSAVAWSNKSDFACANAFNNSIIPEDTFFPSSDVPCDVKLVEKSFETDTNLNFQNLSVIGFRILLLKVAGFNLLMTLRLWSSRAKRSGSGVKQTLNFDLLKLAGDVESNPGPSRGHMTEYKPTVRLATRDDVPRAVRTLAAAFADYPATRHTVDPDRHIERVTELQELFLTRVGLDIGKVWVADDGAAVAVWTTPESVEAGAVFAEIGPRMAELSGSRLAAQQQMEGLLAPHRPKEPAWFLATVGVSPDHQGKGLGSAVVLPGVEAAERAGVPAFLETSAPRNLPFYERLGFTVTADVEVPEGPRTWCMTRKPGA
B4: 22248 (protein)
chain: MALPVTALLLPLALLLHAARPDIQMTQSPSSLSASVGDRVTITCKASDHINNWLAWYQQKPGQAPKLLIYGATTLETGVPSRFSGSGSGTDYTLTISSLQPEDFATYYCQQSWNTPWTFGQGTKLEIKRLEDLKNVFPPEVAVFEPSEAEISHTQKATLVCLATGFYPDHVELSWWVNGKEVHSGVCTDPQPLKEQPALNDSRYCLSSRLRVSATFWQNPRNHFRCQVQFYGLSENDEWTQDRAKPVTQIVSAEAWGRADCGFTSESYQQGVLSATILYEILLGKATLYAVLVSALVLMAMVKRKDSRGRAKRSGSGATNFSLLKQAGDVEENPGPTSATMDWIWRILFLVGAATGAHSGPQLGPYELWELSHGSGPLGIAGIFEQVQLQQPGAELVKPGASVKMSCKASGYAFSSYWINWMKQKPGQGLEWIGQIYPGDGDTNYNGKFKGRATLTADTSSSTAYMQLSSLTSEDSAVYFCARSITTVVGCAMDYWGQGTSVTVSSTRIQNPDPAVYQLRDSKSSDKSVCLFTDFDSQTNVSQSKDSDVYITDKCVLDMRSMDFKSNSAVAWSNKSDFACANAFNNSIIPEDTFFPSPESSCDVKLVEKSFETDTNLNFQNLSVIGFRILLLKVAGFNLLMTLRLWSSRAKRSGSGVKQTLNFDLLKLAGDVESNPGPSRGHMTEYKPTVRLATRDDVPRAVRTLAAAFADYPATRHTVDPDRHIERVTELQELFLTRVGLDIGKVWVADDGAAVAVWTTPESVEAGAVFAEIGPRMAELSGSRLAAQQQMEGLLAPHRPKEPAWFLATVGVSPDHQGKGLGSAVVLPGVEAAERAGVPAFLETSAPRNLPFYERLGFTVTADVEVPEGPRTWCMTRKPGA
B5: 22244 (protein)
chain: MALPVTALLLPLALLLHAARPDIQMTQSPSSLSASVGDRVTITCKASDHINNWLAWYQQKPGQAPKLLIYGATTLETGVPSRFSGSGSGTDYTLTISSLQPEDFATYYCQQSWNTPWTFGQGTKLEIKRLEDLKNVFPPEVAVFEPSEAEISHTQKATLVCLATGFYPDHVELSWWVNGKEVHSGVCTDPQPLKEQPALNDSRYCLSSRLRVSATFWQNPRNHFRCQVQFYGLSENDEWTQDRAKPVTQIVSAEAWGRADCGFTSESYQQGVLSATILYEILLGKATLYAVLVSALVLMAMVKRKDSRGRAKRSGSGATNFSLLKQAGDVEENPGPTSATMDWIWRILFLVGAATGAHSGPSACPYSNPSLCSGSGGGGSGGGGSGGGGSFEQVQLQQPGAELVKPGASVKMSCKASGYAFSSYWINWMKQKPGQGLEWIGQIYPGDGDTNYNGKFKGRATLTADTSSSTAYMQLSSLTSEDSAVYFCARSITTVVGCAMDYWGQGTSVTVSSTRIQNPDPAVYQLRDSKSSDKSVCLFTDFDSQTNVSQSKDSDVYITDKCVLDMRSMDFKSNSAVAWSNKSDFACANAFNNSIIPEDTFFPSPESSCDVKLVEKSFETDTNLNFQNLSVIGFRILLLKVAGFNLLMTLRLWSSRAKRSGSGVKQTLNFDLLKLAGDVESNPGPSRGHMTEYKPTVRLATRDDVPRAVRTLAAAFADYPATRHTVDPDRHIERVTELQELFLTRVGLDIGKVWVADDGAAVAVWTTPESVEAGAVFAEIGPRMAELSGSRLAAQQQMEGLLAPHRPKEPAWFLATVGVSPDHQGKGLGSAVVLPGVEAAERAGVPAFLETSAPRNLPFYERLGFTVTADVEVPEGPRTWCMTRKPGA
B6: 22211 (protein)
chain: B5 chain with S362Q, A363L, C364G, S367E, N368L, P369W, S370E, C372S, S373H

Each molecule was assayed on RAJI cells (assay: JNG assay, co-culture with RAJI cells). Details: JNG cells expressing construct, co-culture with Raji.
Format: cell-based
Method in brief: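 Jurkat NFAT-GFP (JNG) cells stably transduced with SARs by lentivirus, with drug selection where the construct carried a resistance gene, then co-cultured with target cells at E:T ~1:2 for ~4–18 h. % GFP-positive cells measured by FACS against parental JNG; +/- to 5+ correspond to ~5–50% GFP-positive.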

Row | Molecule | NFAT-GFP ASSAY: Raji
1 | B1 | Raji (2+) (refer to approximately 5%, 10%, 20%, 30%, 40% and 50% GFP positive cells)
2 | B2 | Raji (3+) (refer to approximately 5%, 10%, 20%, 30%, 40% and 50% GFP positive cells)
3 | B3 | Raji (+) (refer to approximately 5%, 10%, 20%, 30%, 40% and 50% GFP positive cells)
4 | B4 | Raji (3+) (refer to approximately 5%, 10%, 20%, 30%, 40% and 50% GFP positive cells)
5 | B5 | Raji (+/-) (refer to approximately 5%, 10%, 20%, 30%, 40% and 50% GFP positive cells)
6 | B6 | 2+ (refer to approximately 5%, 10%, 20%, 30%, 40% and 50% GFP positive cells)
